These results are taken from the supplement of paper PMC10567573.

± gives the standard deviation.

The nature of the series: protein stability index of a GFP-peptide fusion (GPS, HEK-293T) (PSI 1-6); higher = more stable. The conditions noted are these: c terminus: a fixed tail appended.
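Note: 24-mer peptide tiles fused after GFP, lentivirally expressed, FACS-sorted into six equal bins by GFP/DsRed ratio, decoded by Illumina sequencing, PSI is the read-weighted mean bin number.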

Turning to PPPASQPVVKALFGASAAGGLSPV [CDC25A], the protein stability index is, setting by setting: (treatment: DMSO) 4.08 ± 0.14; (treatment: MLN4924 1 uM, 8 h) 4.17 ± 0.21.
Consider PPPPMQPTVPSAATSQPTPSQHSA [CCDC6], for which the protein stability index runs as follows: (treatment: DMSO) 5.23 ± 0.12; (treatment: MLN4924 1 uM, 8 h) 5.47 ± 0.18.
Taken in the same sequence, the figures for PPSRGHGYRDYGHSRRHESYSRGY [RBMY1A1] were 3.96 ± 0.07 and 4.01 ± 0.32.
Taken in the same sequence, the figures for PQFTGILQLLQSRTSRKFLACRLT [INTS3] were 2.18 ± 0.41 and 2.16 ± 0.27.
Taken in the same sequence, the figures for PQKLKEVISLEKLNVGNERYVFEA [GAN] were 2.96 ± 0.21 and 2.92 ± 0.41.
PQVPPSQPLRPWAGGDVPHKTHQA [DYRK1B]: the protein stability index came to 4.41 ± 0.32 (treatment: DMSO) and 4.63 ± 0.21 (treatment: MLN4924 1 uM, 8 h).
PQVPQPPSPAAVPRPPSNPPARGT [TRAF3IP2]: the protein stability index is, setting by setting: (treatment: DMSO) 5.2 ± 0.12; (treatment: MLN4924 1 uM, 8 h) 5.17 ± 0.2.
Take PQYTIRCRPLQFQPSKSHKKVLKK [ATE1]: the protein stability index runs as follows: (treatment: DMSO) 3.6 ± 0.09; (treatment: MLN4924 1 uM, 8 h) 3.88 ± 0.3.
The matching figures for PRDLPKHTPLISKSQSLRSVRRSE [RASAL3]: 5.19 ± 0.27 and 5.43 ± 0.2.
The matching figures for PRRESLLRGLCRPLRPLLGFRESD [C6orf223]: 2.36 ± 0.46 and 2.13 ± 0.43.
Taken in the same sequence, the figures for PRRFTFYPCVLATEGFTSGRHYWE [TRIM39] were 2.31 ± 0.51 and 2.19 ± 0.13.
Turning to PSCRHEVVLDRHGVYGLQRNLLVE [TRIM55], the protein stability index by setting is: (treatment: DMSO) 2.32 ± 0.36; (treatment: MLN4924 1 uM, 8 h) 2.3 ± 0.47.
In the case of PSLRPRPASSISLPIGHLGCISLL [DMRTC1], the protein stability index is, setting by setting: (treatment: DMSO) 2.55 ± 0.35; (treatment: MLN4924 1 uM, 8 h) 2.85 ± 0.43.
Regarding PSLSTITSTSSSITSSIPDTERLD [DVL3], the protein stability index reads like this: (treatment: DMSO) 5.23 ± 0.17; (treatment: MLN4924 1 uM, 8 h) 5.28 ± 0.16.
The matching figures for PSNRSFFSEIISSISDVKFSHSGR [PPP2R2B]: 2.73 ± 0.44 and 2.78 ± 0.39.
The matching figures for PSSNEEIRLVDDAFGKICHMVSDG [INTS4]: 4.18 ± 0.23 and 4.5 ± 0.2.
As to PSSSSIHNGDMEKILLDAQHESGQ [BNIP3L], the protein stability index runs as follows: (treatment: DMSO) 5.12 ± 0.14; (treatment: MLN4924 1 uM, 8 h) 5.27 ± 0.096.
Taken in the same sequence, the figures for PTKSHSFRAMCQNGKLVYPSCEEK [CFHR2] were 4.01 ± 0.32 and 4.25 ± 0.34.
Taken in the same sequence, the figures for PTTSFLSISKLSPFSEFFKLRFNR [PWWP2B] were 2.07 ± 0.33 and 2.13 ± 0.36.
Taken in the same sequence, the figures for PVFLHSQMLWELVLLGEPLVVMAP [DENND6A] were 2.81 ± 0.63 and 2.98 ± 0.69.
Turning to PVHLVDKLPLPIALRSHLKSFSMA [RAB40B], the protein stability index runs as follows: (treatment: DMSO) 2.46 ± 0.2; (treatment: MLN4924 1 uM, 8 h) 2.27 ± 0.2.
The matching figures for PYQVNGVNPAYPESRYTSDYFISY [ETS1]: 2.18 ± 0.18 and 2.27 ± 0.21.
Taken in the same sequence, the figures for PYSTVDNPVYYGPSDFFIGAVIEV [EFHC1] were 2.8 ± 0.48 and 3.13 ± 0.53.
Taken in the same sequence, the figures for QAPGEENLLGEAAGGQDMADSMLM [HDAC6] were 5.36 ± 0.16 and 5.14 ± 0.36.
Consider QAYLDDCHRRYSCAHCRAHLANHD [YPEL3], for which the protein stability index is, setting by setting: (treatment: DMSO) 2.68 ± 0.43; (treatment: MLN4924 1 uM, 8 h) 2.45 ± 0.39.
Taken in the same sequence, the figures for QCLVEGCTEKFKTSRDRKDHMVRM [ZNF511] were 3.57 ± 0.27 and 3.95 ± 0.25.
Taken in the same sequence, the figures for QDEEDMFMVVDLLLGGDLRYHLQQ [STK32A] were 2.21 ± 0.18 and 2.1 ± 0.35.
In the case of QDIDLGAGREVFDYSHRQKEQDVE [NFE2L1], where the note is “treatment: MLN4924 1 uM, 8 h”, the protein stability index stood at 5.05 ± 0.84.
QDSSVTSKRNIKKGAVPRSIPNLA [HDAC6]: the protein stability index runs as follows: (treatment: DMSO) 4.17 ± 0.26; (treatment: MLN4924 1 uM, 8 h) 4.21 ± 0.41.
Taken in the same sequence, the figures for QEAMFNMATLNRTAAGLMHTFNAH [SEPHS2] were 2.44 ± 0.12 and 2.54 ± 0.18.
The matching figures for QELANIDPTWIESPKTNGHIENGP [SRPK2]: 4.92 ± 0.32 and 4.63 ± 0.19.
The matching figures for QEMQQKLVELSAENEKLHQRVEQL [CEBPD]: 4.84 ± 0.1 and 4.74 ± 0.54.
As to QFAAEYTSKNSSTQDPSQPNSTKN [LCOR], the protein stability index was found to be 5.22 ± 0.15 (treatment: DMSO) and 5.36 ± 0.08 (treatment: MLN4924 1 uM, 8 h).
As for QFLLELLSDKSCQSFISWTGDGWE [ETS2], the protein stability index is, setting by setting: (treatment: DMSO) 1.83 ± 0.38; (treatment: MLN4924 1 uM, 8 h) 1.85 ± 0.29.
Taken in the same sequence, the figures for QHCRQSLASRIRSNKKMLLLVGGL [KLHL14] were 2.54 ± 0.83 and 2.24 ± 0.43.
Regarding QHSHVVRYFSAWAEDDHMLIQNEY [WEE1], the protein stability index amounted to 2.22 ± 0.14 (treatment: DMSO) and 2.24 ± 0.12 (treatment: MLN4924 1 uM, 8 h).
The matching figures for QIDAVGSKLKMLERKGWLAPSPGV [PKD2L1]: 3 ± 0.45 and 3.17 ± 0.22.
